From patent US20260250420A1 (SICHUAN KELUN BIOTECH BIOPHARMACEUTICAL, published 2026)

T1: monkey PTK7 protein (extracellular sequence of monkey PTK7 with C-terminal 6×His tag) (monkey)
T1 chain: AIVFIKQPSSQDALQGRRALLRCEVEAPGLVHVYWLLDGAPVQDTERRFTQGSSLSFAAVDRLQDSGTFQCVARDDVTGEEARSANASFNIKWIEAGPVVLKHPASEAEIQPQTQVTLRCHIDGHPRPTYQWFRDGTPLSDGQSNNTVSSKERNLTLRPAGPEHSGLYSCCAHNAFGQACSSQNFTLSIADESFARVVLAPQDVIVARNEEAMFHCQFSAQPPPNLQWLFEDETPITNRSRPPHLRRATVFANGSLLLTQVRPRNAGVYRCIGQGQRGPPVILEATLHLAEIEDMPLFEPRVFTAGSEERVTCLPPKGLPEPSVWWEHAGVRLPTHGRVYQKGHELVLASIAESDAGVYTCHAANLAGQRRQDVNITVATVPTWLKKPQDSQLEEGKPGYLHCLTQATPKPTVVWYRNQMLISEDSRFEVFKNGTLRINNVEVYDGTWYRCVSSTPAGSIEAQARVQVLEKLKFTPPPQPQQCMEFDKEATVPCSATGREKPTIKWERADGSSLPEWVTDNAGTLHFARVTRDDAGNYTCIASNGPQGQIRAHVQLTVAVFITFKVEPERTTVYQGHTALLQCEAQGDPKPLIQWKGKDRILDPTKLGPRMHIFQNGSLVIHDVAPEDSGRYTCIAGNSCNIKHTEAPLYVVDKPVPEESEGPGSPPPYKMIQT

T2: human PTK7 protein (extracellular sequence of human PTK7 with C-terminal 6×His tag) (human, UniProt Q13308 31-704)
T2 construct: extracellular domain; Expressed transiently in HEK293 cells; also called human PTK7-His; human PTK7-His protein
T2 sequence: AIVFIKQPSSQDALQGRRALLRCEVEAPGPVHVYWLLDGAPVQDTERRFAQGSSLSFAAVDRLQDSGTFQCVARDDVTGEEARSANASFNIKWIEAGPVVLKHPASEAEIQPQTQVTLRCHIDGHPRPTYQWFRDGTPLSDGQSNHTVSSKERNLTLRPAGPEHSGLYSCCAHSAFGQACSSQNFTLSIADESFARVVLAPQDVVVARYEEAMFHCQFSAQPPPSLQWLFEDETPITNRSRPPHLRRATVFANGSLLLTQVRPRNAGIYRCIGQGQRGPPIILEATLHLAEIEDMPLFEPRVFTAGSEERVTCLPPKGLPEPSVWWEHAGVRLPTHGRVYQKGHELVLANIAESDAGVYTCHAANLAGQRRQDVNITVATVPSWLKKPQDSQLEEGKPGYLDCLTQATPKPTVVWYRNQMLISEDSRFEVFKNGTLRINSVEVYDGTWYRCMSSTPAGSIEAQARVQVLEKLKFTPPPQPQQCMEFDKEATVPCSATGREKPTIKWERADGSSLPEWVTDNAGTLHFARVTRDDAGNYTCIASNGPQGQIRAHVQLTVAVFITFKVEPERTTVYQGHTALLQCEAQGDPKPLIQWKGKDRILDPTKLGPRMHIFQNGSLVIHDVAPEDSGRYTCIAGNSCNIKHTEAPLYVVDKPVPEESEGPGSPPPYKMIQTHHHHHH

B1: Hu24 (PTK7 control antibody, taken from Hu24 in the Patent CN201580030255) (antibody)
chain 1: QVQLVQSGPEVKKPGASVKVSCKASGYTFTDYAVHWVRQAPGKRLEWIGVISTYNDYTYNNQDFKGRVTMTRDTSASTAYMELSRLRSEDTAVYYCARGNSYFYALDYWGQGTSVTVSS
chain 2: EIVLTQSPATLSLSPGERATLSCRASESVDSYGKSFMHWYQQKPGQAPRLLIYRASNLESGIPARFSGSGSGTDFTLTISSLEPEDFAVYYCQQSNEDPWTFGGGTKLEIK
B2: 64A10HZ (anti-human PTK7 humanized antibody) (antibody, human IgG1, kappa, V domains shown)
VH: QVQLQESGPGLVKPSETLSLTCTVSGFSLTSYGVYWVRQPPGKGPEWLGVIWTSGNTNYNPSLKSRLTISKDNSKNQVSLKLSSVTAADTAVYYCVKHDGGNYVGVMNYWGQGTLVTVSS
VL: EIVMTQSPDFQSVTPKEKVTITCRASQSISDYLHWYQQKPDQSPKLLIKYASQSISGVPSRFSGSGSGSDFTLTINSLEAEDAATYYCQNGHSFPPTFGQGTKLEIKR
notes: Human IgG1 heavy chain constant region and human Kappa light chain constant region; expressed in CHO-S cells
B3: 101A6HZ (anti-human PTK7 humanized antibody) (antibody, human IgG1, kappa)
heavy: not shown
light: DIVMTQSPDSLAVSLGERATINCKASQDVGSAVIWYQQKPGQSPKLLIYWASTRHTGVPDRFSGSGSGTDFTLTISSLQAEDVAVYYCQQYSSYPLTFGQGTKLEIKRTVAAPSVFIFPPSDEQLKSGTASVVCLLNNFYPREAKVQWKVDNALQSGNSQESVTEQDSKDSTYSLSSTLTLSKADYEKHKVYACEVTHQGLSSPVTKSFNRGEC

Target: T1, monkey PTK7 protein (extracellular …)
Assay: BLI (ForteBio), antibody on Protein A sensor, monkey PTK7 protein in solution
Text: (§1) The dynamic affinity of the control Hu24 and candidate antibodies 64A10HZ, 101A6HZ, 4E12HZ and 19C2HZ with human PTK7-His was detected by using ForteBio (Pall life sciences).
ELISA and ForteBio were adopted to detect binding of the anti-human PTK7 chimeric and humanized antibodies to the monkey, mouse and rat PTK7 proteins.

| Kd | Binder |
| --- | --- |
| 11.9 nM | B1 |
| 26.7 nM | B2 |
| 134 nM | B3 |

Target: T2, human PTK7 protein (extracellular …)
Assay: ELISA, coated human PTK7-His protein 1 µg/ml
Procedure: The original data was imported into software for nonlinear curve fitting, and the EC₅₀ of binding of each antibody to the human PTK7 was calculated, respectively.

| EC50 | Binder |
| --- | --- |
| 0.0466 µg/mL | B1 |
| 0.0155 µg/mL | B2 |
| 0.0266 µg/mL | B3 |

Target: T1, monkey PTK7 protein (extracellular …)
Assay: ELISA, coated monkey PTK7 protein

| EC50 | Binder |
| --- | --- |
| 0.134 µg/mL | B1 |
| 0.0201 µg/mL | B2 |
| 1.23 µg/mL | B3 |

Target: T2, human PTK7 protein (extracellular …)
Assay: BLI (ForteBio), antibody on Protein A sensor, human PTK7-His 200-3.125 nM, 1:1 global fit
Text: as §1

| Kd | koff | kon | Binder |
| --- | --- | --- | --- |
| 4.96 nM | 0.00105 s⁻¹ | 211000 M⁻¹ s⁻¹ | B1 |
| 10.9 nM | 0.00278 s⁻¹ | 255000 M⁻¹ s⁻¹ | B2 |
| 42.4 nM | 0.00566 s⁻¹ | 134000 M⁻¹ s⁻¹ | B3 |
